Experimental findings from patent publication US20170182124A1, “FGF21 Derivatives and Uses Thereof” (Novo Nordisk A/S, priority 2014, published 2017) are described below.

Data set [1] in a line: Pharmacokinetic study in mice (i.v.). Particulars: terminal half-life, single intravenous dose of 20 mg/kg, lean C57bl mice.
Procedure: This was done in a pharmacokinetic (PK) study, where the terminal half-life of the analogue in question was determined. By terminal half-life is meant the time it takes to halve a certain plasma concentration in the terminal elimination phase.
The pharmacokinetic profile of FGF21 analogues was tested in normal lean C57b1 mice, n =2-3 (approximately 30 grams). FGF21 compounds were dosed as a single intravenous dose of 20 mg/kg (approximately 5 ml/kg).
The plasma levels of the FGF21 compounds were determined using Fibroblast Growth Factor-21 Human ELISA (available from BioVendor, catalogue no. RD191108200R). The PC based software, WnNonLin version 6.3 from Pharsight Corportion, Cary N.C., was used for the pharmacokinetic calculation.
Another data set addresses FGF receptor/BKL complex. Description: FGF receptor potency in an Erk phosphorylation assay in HEK293 overexpressing human BKL. It is filed as cell-based. Particulars: HEK293/BKL cells, pERK after 12 minutes. The essentials:
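pERK after 12 min analogue exposure at 37° C. was quantified by AlphaScreen SureFire in lysates of beta-klotho-transfected HEK293 cells. Assay medium was DMEM with 0.02% Tween20, run both without albumin and with 0.1% final HSA to probe albumin binding. Cells were starved 2 h in basal medium first. Absolute EC50 reported.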

The nature of data set [2]: Body weight reduction in lean mice. Format: in vivo, lean C57BL mice. Particulars: s.c. 1 mg/kg BID for 7 days, change from baseline day 1 to 7. As to the method: In order to determine the in vivo potency of the FGF21 derivatives the effect on body weight was studied in lean C57BL mice after subcutaneous (s.c.) administration. It has previously been shown that the weight loss induced by FGF21 in lean mice is predictive of the effect in obese mice and therefore lean mice are considered a good screening model.
The compounds were administered s.c. 1 mg/kg either once (QD) or twice (BID) daily in 10 mM phosphate, 2% (w/vol) glycerol, 500ppm (=0.05%) polysorbate 80, pH=8.15, (2 ml/kg) for 7 days (n=7-8). The respective vehicle treated groups (control) were treated with 10 mM phosphate, 2% (w/vol) glycerol, 500ppm (=0.05%) polysorbate 80, pH=8.15, (2 ml/kg) s.c. twice daily for 7 days (n=6-8). Body weight was measured before dosing and again after 7 days treatment.

The target of the next data set is 3T3-L1 adipocytes (Mus musculus, UniProt P16092+Q99N32). Briefly: Glucose uptake in 3T3-L1 adipocytes. It is filed as cell-based. To be noted: stimulated 20 hours, 3H-deoxy-glucose. As to the method:
The C-terminal modified analogues were tested for their ability to increase glucose uptake in 3T3-L1 mouse adipocytes. The following assay was used for determining the biological activity, or potency, of FGF21 analogues and derivatives of the invention.
The in vitro potency may also be determined in an assay with mouse 3T3-L1 adipocytes by testing the FGF21 analogues and derivatives for their ability to increase glucose uptake into adipocytes. Differentiated 3T3-L1 adipocytes endogenously express FGFR1c and BKL. The 3T3-L1 cells are unresponsive to FGF21 until after differentiated as differentiation lead to expression of the co-receptor BKL. Activation of the FGFR1 receptor/BKL complex increase the expression of glucose transporter 1 (GLUT1) and therefore FGF21 agonists will lead to an increased amount of glucose taken into the adipocytes in a dose responsive manner.
Mouse 3T3-L1 fibroblasts (e.g. available from ATCC, catalogue no. CL-173) were maintained in basal medium (DMEM (4500 mg/I Glucose) with 10% Fetal Bovine Serum (FBS) and 1% Penicillin/Streptomycin). The cells are not allowed to reach confluence and should be passed (transferred to new vials) before reaching approx. 60% of confluency (by visual inspection).
For the glucose uptake assay, cells were 15.000 cells/well in a 96 well plate (BIOCOAT), and when they reached confluency (high density, with a view to have differentiated adipose cells made), the medium was changed from basal medium to basal medium containing Troglitazone, IBMX, Dexamethasone (commercially available from, e.g., Sigma) and human insulin (commercially available from, e.g., Novo Nordisk A/S).
The cells were used 7-9, days after initiation of differentiation. The cells were stimulated with increasing concentrations (0-300 nM) of the FGF21 analogues or derivatives of the invention for 20 hours in basal medium. Before addition of 3H-deoxy-glucose (in what follows: the tracer) the cells were washed in warm (approximately 37° C.) assay buffer (PBS with 1 mM MgCl2 and 2 mM CaCl2), HEPES and 0.1% Human serum albumin) and the cells were incubated with the tracer for 1 hour. This incubation was terminated by washing twice in ice cold assay buffer. The cells were lysed with Triton X-100 and lysates transferred to a 96 wells plate, microscint-40 (commercially available from, e.g., Perkin Elmer) was added and amount of tracer counted in a TOP-counter (e.g. a Packard top-counter from Perkin Elmer). The EC50 and Emax of the FGF21 compound in question were calculated. The results which are shown in tables 4-5 below indicate the EC50 (potency) and Emax (efficacy) of the FGF21 analogues and derivatives, respectively.

[3] abbreviates: presence of 0.1% HSA, read-out: EC50 (0.1% HSA).

Substitutions are numbered along the chain they refer to. Like-named read-outs stand apart in the source and are kept apart here. Marks after values point to notes of the source that are not given here.

Sequence of FGF receptor/BKL complex (Q86Z14 whole entry, one chain of several): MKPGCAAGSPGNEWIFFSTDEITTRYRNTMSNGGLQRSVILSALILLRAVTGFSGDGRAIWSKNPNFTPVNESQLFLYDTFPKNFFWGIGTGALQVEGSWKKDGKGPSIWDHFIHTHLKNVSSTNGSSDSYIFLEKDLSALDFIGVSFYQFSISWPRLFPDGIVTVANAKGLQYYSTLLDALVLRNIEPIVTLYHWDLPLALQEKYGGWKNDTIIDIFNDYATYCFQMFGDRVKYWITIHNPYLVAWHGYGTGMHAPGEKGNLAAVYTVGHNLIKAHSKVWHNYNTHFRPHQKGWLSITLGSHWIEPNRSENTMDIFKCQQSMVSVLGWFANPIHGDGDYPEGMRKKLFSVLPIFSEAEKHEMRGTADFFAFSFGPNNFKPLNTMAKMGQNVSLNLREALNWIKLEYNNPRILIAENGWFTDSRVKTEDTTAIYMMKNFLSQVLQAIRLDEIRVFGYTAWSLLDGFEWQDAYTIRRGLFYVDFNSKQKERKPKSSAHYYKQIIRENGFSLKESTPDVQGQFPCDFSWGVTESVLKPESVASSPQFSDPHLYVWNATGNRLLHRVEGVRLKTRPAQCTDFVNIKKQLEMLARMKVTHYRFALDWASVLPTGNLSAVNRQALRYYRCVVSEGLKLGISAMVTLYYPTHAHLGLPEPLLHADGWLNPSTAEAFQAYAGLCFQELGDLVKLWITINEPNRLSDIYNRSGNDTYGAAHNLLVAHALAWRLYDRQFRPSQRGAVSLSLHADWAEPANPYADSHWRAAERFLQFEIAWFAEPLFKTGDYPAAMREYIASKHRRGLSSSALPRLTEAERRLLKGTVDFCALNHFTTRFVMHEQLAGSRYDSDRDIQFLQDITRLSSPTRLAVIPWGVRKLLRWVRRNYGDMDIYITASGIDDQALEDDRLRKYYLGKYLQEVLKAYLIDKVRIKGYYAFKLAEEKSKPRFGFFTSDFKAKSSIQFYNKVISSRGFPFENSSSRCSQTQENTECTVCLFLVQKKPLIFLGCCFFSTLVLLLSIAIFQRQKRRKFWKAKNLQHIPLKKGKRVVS
Sequence of 3T3-L1 adipocytes (Q99N32 whole entry): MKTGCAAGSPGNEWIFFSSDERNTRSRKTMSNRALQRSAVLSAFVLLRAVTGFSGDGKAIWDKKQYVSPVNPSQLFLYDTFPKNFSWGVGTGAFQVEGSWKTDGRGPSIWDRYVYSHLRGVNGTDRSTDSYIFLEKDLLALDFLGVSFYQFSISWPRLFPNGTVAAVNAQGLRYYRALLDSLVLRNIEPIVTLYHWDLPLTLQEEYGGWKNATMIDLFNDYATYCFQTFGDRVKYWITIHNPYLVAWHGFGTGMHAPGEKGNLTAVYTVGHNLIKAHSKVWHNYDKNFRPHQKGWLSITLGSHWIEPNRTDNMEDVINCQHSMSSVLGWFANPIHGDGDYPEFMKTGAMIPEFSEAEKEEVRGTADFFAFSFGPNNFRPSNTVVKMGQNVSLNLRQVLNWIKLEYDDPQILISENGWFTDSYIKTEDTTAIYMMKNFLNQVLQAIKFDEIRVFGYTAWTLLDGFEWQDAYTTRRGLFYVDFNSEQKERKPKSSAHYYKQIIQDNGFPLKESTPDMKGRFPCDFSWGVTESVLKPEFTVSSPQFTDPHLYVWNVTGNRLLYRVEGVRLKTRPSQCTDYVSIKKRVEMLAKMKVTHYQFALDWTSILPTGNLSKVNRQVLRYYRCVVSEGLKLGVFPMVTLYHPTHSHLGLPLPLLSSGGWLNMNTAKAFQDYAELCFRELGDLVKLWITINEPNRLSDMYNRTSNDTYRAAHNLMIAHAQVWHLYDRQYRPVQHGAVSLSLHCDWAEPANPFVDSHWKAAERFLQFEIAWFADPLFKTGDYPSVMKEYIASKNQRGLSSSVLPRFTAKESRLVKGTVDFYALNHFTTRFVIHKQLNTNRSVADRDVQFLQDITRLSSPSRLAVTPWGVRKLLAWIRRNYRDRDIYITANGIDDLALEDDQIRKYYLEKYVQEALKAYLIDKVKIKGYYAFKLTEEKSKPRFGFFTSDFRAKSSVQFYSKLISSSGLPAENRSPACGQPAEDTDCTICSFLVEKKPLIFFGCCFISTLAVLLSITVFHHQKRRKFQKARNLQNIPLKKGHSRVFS
Sequence of 3T3-L1 adipocytes (P16092 22-822): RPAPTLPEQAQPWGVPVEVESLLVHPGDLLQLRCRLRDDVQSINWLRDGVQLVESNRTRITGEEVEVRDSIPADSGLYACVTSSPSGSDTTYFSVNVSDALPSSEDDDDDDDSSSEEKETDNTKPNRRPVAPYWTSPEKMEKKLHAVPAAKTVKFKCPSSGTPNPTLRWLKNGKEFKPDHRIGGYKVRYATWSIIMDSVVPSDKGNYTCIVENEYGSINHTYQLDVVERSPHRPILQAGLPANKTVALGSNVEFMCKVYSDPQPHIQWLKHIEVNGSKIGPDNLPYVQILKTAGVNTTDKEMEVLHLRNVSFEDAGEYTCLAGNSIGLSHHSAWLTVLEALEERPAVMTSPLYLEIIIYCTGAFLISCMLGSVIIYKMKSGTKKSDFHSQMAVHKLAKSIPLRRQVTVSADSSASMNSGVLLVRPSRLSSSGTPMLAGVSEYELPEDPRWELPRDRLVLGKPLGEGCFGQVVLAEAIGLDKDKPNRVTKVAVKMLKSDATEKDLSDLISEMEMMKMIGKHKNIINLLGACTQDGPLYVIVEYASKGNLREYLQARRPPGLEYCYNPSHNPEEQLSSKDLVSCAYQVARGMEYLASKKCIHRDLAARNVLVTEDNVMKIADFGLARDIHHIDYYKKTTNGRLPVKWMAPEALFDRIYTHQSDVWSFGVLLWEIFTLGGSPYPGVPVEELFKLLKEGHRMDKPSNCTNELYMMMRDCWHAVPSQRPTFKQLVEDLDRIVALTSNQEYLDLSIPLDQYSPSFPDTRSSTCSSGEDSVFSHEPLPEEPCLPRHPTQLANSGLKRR

B1: S{Beta-180}-[2-[2-[[2-[2-[2-[[2-[2-[2-[[(4S)-4-carboxy-4-(11-carboxyundecanoyl-amino)butanoyl]amino]ethoxy]ethoxy]acetyl]amino]ethoxy]ethoxy]acetyl]amino]-ethylamino]-2-oxoethyl]-Ala[Gln121,Leu168,Cys … (protein)
chain: HPIPDSSPLLQFGGQVRQRYLYTDDAQQTEAHLEIREDGTVGGAADQSPESLLQLKALKPGVIQILGVKTSRFLCQRPDGALYGSLHFDPEACSFRELLLEDGYNVYQSEAHGLPLHLPGQKSPHRDPAPRGPARFLPLPGLPPALPEPPGILAPQPPDVGSSDPLSLVGPSQGRSPSYCS
As a reminder, the EC50 is the midpoint of the concentration-response curve. As for B1, the Half-life mice in data set [1] amounted to 1 h. Besides, the EC50 on FGF receptor/BKL complex (absence of HSA, read-out: EC50) was determined as 7 nM; at FGF receptor/BKL complex (setting [3]) it was 4 nM; in the data set with 3T3-L1 adipocytes, 2.7 nM. Besides, in data set [2], the “Mean Δ body weight (%)” value was −2.04%. The “Glucose uptake Emax” value with 3T3-L1 adipocytes was 87%.

B2: S{Beta-181}-[2-[2-[[2-[2-[2-[[2-[2-[2-[[(4S)-4-carboxy-4-(11-carboxyundecanoyl-amino)butanoyl]amino]ethoxy]ethoxy]acetyl]amino]ethoxy]ethoxy]acetyl]amino]-ethylamino]-2-oxoethyl]-Ala[Gln121,Leu168,Cys … (protein)
chain: B1 chain with C180A, S181C
B2 came in with a Half-life mice in data set [1] of 1 h. Further, the EC50 turned out to be 154 nM at FGF receptor/BKL complex (absence of HSA, read-out: EC50) and 137 nM at FGF receptor/BKL complex (setting [3]). Besides, the “Mean Δ body weight (%)” value in data set [2] amounted to 0.04%.

B3: S{Beta-181}-[2-[2-[[2-[2-[2-[[2-[2-[2-[[(4S)-4-carboxy-4-(19-carboxynonadecanoyl-amino)butanoyl]amino]ethoxy]ethoxy]acetyl]amino]ethoxy]ethoxy]acetyl]amino]-ethylamino]-2-oxoethyl]-Ala[Gln121,Leu168,C … (protein)
chain: B1 chain with C180A, S181C
B3 displayed a Half-life mice in data set [1] of 19 h. Further, the EC50 stood at 58 nM on FGF receptor/BKL complex (absence of HSA, read-out: EC50); 434 nM on FGF receptor/BKL complex (setting [3]); 410 nM in the data set with 3T3-L1 adipocytes. The “Glucose uptake Emax” value with 3T3-L1 adipocytes was found to be 57%.

B4: Ala[Gln121, Leu168]FGF21 (protein)
chain: AHPIPDSSPLLQFGGQVRQRYLYTDDAQQTEAHLEIREDGTVGGAADQSPESLLQLKALKPGVIQILGVKTSRFLCQRPDGALYGSLHFDPEACSFRELLLEDGYNVYQSEAHGLPLHLPGQKSPHRDPAPRGPARFLPLPGLPPALPEPPGILAPQPPDVGSSDPLSLVGPSQGRSPSYAS
modifications: N-terminal Ala
Regarding B4, at FGF receptor/BKL complex (absence of HSA, read-out: EC50), the EC50 was 2 nM. Further, in data set [2], the “Mean Δ body weight (%)” value is listed as −1.98** %. For the same molecule, in the data set with 3T3-L1 adipocytes, it took 3.1 nM to reach a half-maximal effect (EC50) and the “Glucose uptake Emax” value is 85%.

B5: S{Beta-181}-[2-[2-[[2-[2-[2-[[2-[2-[2-[[(4S)-4-carboxy-4-(17-carboxyheptadecanoyl-amino)butanoyl]amino]ethoxy]ethoxy]acetyl]amino]ethoxy]ethoxy]acetyl]amino]-ethylamino]-2-oxoethyl]-Met[Cys181]FGF21 (protein)
chain: B4 chain with A1M, Q122N, L169M, S182C
B5 gave a Half-life mice in data set [1] of 12 h.
